Test results taken from the RNAGym collection of RNA variant scans (doi:10.1073/pnas.2313332121).
Fewer inactive variants are shown than the library holds.

B1: TPR 5TU (parent)
chain: GGAUCUUCUCGAUCUAACAAAAAAGACAAAUCUGCCACAAAGCUUGAGAGCAUCUUCGGAUGCAGAGGCGGCAGCCUUCGGUGGCGCGAUAGCGCCAACGUUCUCAACUAUGACACGCAAAACGCGUGCUCCGUUGAAUGGAGUUUAUCAUG

Variants of: B1
Test: polymerase ribozyme fitness, log enrichment relative to wild type (log ratio); higher = more active; in vitro selection for triplet polymerase activity
Procedure, shortened: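 Genotype fitness is the logarithm of its enrichment divided by wild-type enrichment, using inverse-variance-weighted averages of replicates. That logarithm is base 2. Enrichment was measured by Illumina sequencing of input and output libraries from one triplicate in vitro selection round, with frozen incubation at −7 °C, on PCR-built, transcribed mutant libraries of each subunit of a heterodimeric triplet polymerase ribozyme, retaining genotypes with ≥10 input reads and ≥1 read per output.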

Variant	polymerase ribozyme fitness (log ratio)
C36U C95U	-1.98
C35U G136A G143U	-3.68
C35U A41G C96A U144A	-0.485
C35G U55G G67A G92U	≤ -4.2
C36U U77G A98U U134A	≤ -4.2
C35U A40G C51U G81C C87A	≤ -4.2
C35A G42U G48A G68A A106C C116U A120U G141A	≤ -4.2
C35U U55G A91G A106G G141A	≤ -4.2
C35U A49G G50A U77G C96U G143C A150G U151A	≤ -4.2
C36U C87U G126A	-2.05
C36A A52C C85G A120G A122U U148A	-3.85
C35G G59A C85A A106G G126U	≤ -4.2
C36U U44A A122C	-4.15
C35U G92U	-0.627
C35U A49C U53G C75G G92A A119U A120G G133U A138C	≤ -4.2
C35U G50C C76A C79G C87G A142C G152U	≤ -4.2
C36U G141U A142C	≤ -4.2
C36U G59C C131U	-0.515
A37C A60C C85U G126C U146C	-2.23
C35G A115G	-3.92
C36U A52U C75G G88C C105A C114G A115G	≤ -4.2
C35U C93G G141A	-3.56
C36G U44G G71U C96A C108G G140C	≤ -4.2
C36U G46U G86U C105A G124U	-3.12

Variant	polymerase ribozyme fitness (log ratio)
C35A G65U G83A G140U	≤ -4.2
C35U U101G A110U A138G	≤ -4.2
C36A G59A U144G	-3.49
C35G A91C C118G C123A	≤ -4.2
C36A C75A C87G A106U C149G	≤ -4.2
C36A A64U A107U U139A G140C	≤ -4.2
C36G G83U C125A G141C U145A	-4.09
C35G G68A A91U U144C	≤ -4.2
C35G C76U	-3.99
C35G C76A	-4.13
C35A G50U C69A G74A	≤ -4.2
C35U G50A C87G G124A	-3.99
C35G G68C C125A	-4.18
C35U A91G	-2.83
C36G C54U G92A A110G G143A	≤ -4.2
A37C A49G C87U A115C	-3.32
C35A G83U	≤ -4.2
C35A G83C	-3.93
C35U G140C	-4.13
C36A C85U A89U C96G	≤ -4.2
C35A U101C	-3.87
C36U G128C G140U	≤ -4.2
C35U C85U	-0.375
C35U C85A	-1.42

Variant	polymerase ribozyme fitness (log ratio)
C36U A41G G83C G84U C116U	-4.09
C36A C87U G140C	≤ -4.2
C36U C95G C108A	-3.89
C35A G65U G83C C85A G124A	≤ -4.2
C35U G86U C95G	-3.9
C35U G88A A115C A119G	-3.86
C35U G92A A122G	-3.92
A37C A47U G58A U61G A91G A107C A113G A138U	≤ -4.2
C36U C93G C103G C129A G141C	≤ -4.2
C35U G48A U78C C96G G117C	≤ -4.2
C36A U56G C85A	≤ -4.2
C35U G58C U90G U104A G126A U135A U145G	≤ -4.2
C36U C51G U55A G67A C93U	≤ -4.2
C36U G42A C76U G143A	≤ -4.2
C36A G48U C54G C57A C72A A91C	≤ -4.2
A37C A40U G83A C93G A142G	≤ -4.2
A37C A52C G84A	-3.24
C36G A47G U55C G84U C149A	≤ -4.2
C36U C69G A73G C87A G100U G112C G141C	≤ -4.2
C35U C95U A107C U109A A115U	≤ -4.2
C36A C75U G83A A89C C99G C105U C123A C125A	≤ -4.2
C36U U55A A97G A121G U134G	-3.22
C35G A89C C96G	-4.02
A37C	0.064

Variant	polymerase ribozyme fitness (log ratio)
C35A U90A C95U U102A	≤ -4.2
C35U A41G C85U G141U	1.25
C35A G74A U144G C149G	≤ -4.2
C36A A40C G83C A106G U144A	≤ -4.2
C36U A60C C63U C103G	≤ -4.2
A37C A60C G67C C76G	-3.82
A37C A97U	-0.373
C35A C95G C105G A106G G141A	≤ -4.2
C35U U53A	-0.557
C35A U61A C103G U104C C116U	≤ -4.2
C36G U56A G94U A97C A120U C125U	≤ -4.2
C36A U82A A98G	-4.01
C36U C75G C96G A121U	≤ -4.2
C35U A106U A142U	-4.15
C36U C54U C87U C96G U146G G152A	≤ -4.2
C35U C75A G86A A107G G140U	≤ -4.2
C36U G81A C93G G136A	≤ -4.2
C36U U61G	-2.22
C35G C85G U134A G136A	≤ -4.2
C35G G84A C93G U101G	≤ -4.2
C36A U82A U90G A98C	≤ -4.2
C35U C116A	-0.104
C35G G83A A89C A142U	≤ -4.2
C35U A49G G70A C95G C105A	≤ -4.2

Variant	polymerase ribozyme fitness (log ratio)
C36A C75U C95A C129G	≤ -4.2
C36U A40G C43G U55A A91C G126A G141U	≤ -4.2
C36U A39U	-2.71
A37C A47C G88A G100A A137U	≤ -4.2
C36U C54A G58A G70A G84A C95A A115U G143U	≤ -4.2
C36U C38U G83A A121U	-1.34
C35U C95U C96G	-1.52
C36U G94A	-3.52
C35A G70A A89G G92A	≤ -4.2
C36U A64C G136A U145C A147C	≤ -4.2
C36G G86A G117U U130A G140A	≤ -4.2
C35G U55A G94A U101G C131U	≤ -4.2
C35U A89U C95A G126A A142C	≤ -4.2
C36U U102G C108A C116U A122G	≤ -4.2
C36A C54G C57A G86A U139G	≤ -4.2
C36A C93U G100U	≤ -4.2
C36A C57G U77C A119G	≤ -4.2
C35A U77C G83A A106C G126A U134G	≤ -4.2
C36A C105U U127G	≤ -4.2
C36A C85U	-3.7
C36G G65A G83A A98C	≤ -4.2
C36U A52G C69U C85U U109G C118A	-3.73
C35U C54G A66U C79A G80A G83C G84A C96U U101G U148C	≤ -4.2
A37C A49C C57G C75U A137U G141C	≤ -4.2

Variant	polymerase ribozyme fitness (log ratio)
C35U C79A G81U C93A U102A U127A	≤ -4.2
C35U G42A G65C U77G C87A U101G G143A U151A	≤ -4.2
C36A U56A	-3.62
C35U C99G A119C G141U	-1.83
C35G G62A G68A C69G G71C C72A A73G G74C A91C C114U C132U	≤ -4.2
C35A G100A C125G C131G	≤ -4.2
A37C A47C	-1.24
C36A A66C	≤ -4.2
C36U A52G U61A C95A A122U U144A	≤ -4.2
C36A G42A U45G G81A C87A A137C	≤ -4.2
C35G C105U C129A A150C	-4.14
C35U G59C G81A G83A A110G G133C	≤ -4.2
C35U C43A C95G U101C	≤ -4.2
C35G C54A U56A C79G C99U G126U G143U	≤ -4.2
C35U G124U	-1.25
C35U G136A	0.0897
C36U U134G U148A	-4.04
C35U C54G C57G C69U U82A A91U G92A A113G	≤ -4.2
C36A G46C C79U G88U U151A	≤ -4.2
C36G G84A	-4.19
C35G A47C C69G U77G U82C C103G G128U U130G U151C	≤ -4.2
C35G C85A C105G A113U	≤ -4.2
A37C A40C A66U C75G G94U A120G C131G G141A	≤ -4.2
A37C A115U	-1.16

Variant	polymerase ribozyme fitness (log ratio)
C35U A52C G81A G86U C95A	≤ -4.2
C35U A49G G88U C93G	≤ -4.2
C35G C51U C85U U139G A142U	≤ -4.2
C36U C87G	≤ -4.2
C35A U146A	-3.32
C36U C38A A91U C103A C116A	≤ -4.2
C36A U55A C95G A97U U135A	≤ -4.2
C35U C129U	-0.479
C35A C108G C116A A142U	≤ -4.2
C35U G83A	-0.173
A37C A52U C96A	-2.87
C36A C95U	-3.7
C35U G86U	-1.43
C36U A41G C95A A122G	-0.35
C35U U45A G83C C85G A97G G141C	≤ -4.2
C35U C54A G84A U146C	-1
C35U G94A C108A A150U	≤ -4.2
C35U U127G	-4.01
C35U G62A G83U G86C C125G A142U	≤ -4.2
C35U C57U C95G C99G A120U	-3.85
C36G U146G	-3.97
C35U G141A	0.194
C36A A73G C96U A121C C131U	≤ -4.2
